{
  "source": "patent US20040009892A1",
  "about": "“Method for the identification and use of substances that modulate POD function and/or structure” (The Salk Institute for Biological Studies, priority 1997, published 2004)",
  "molecules": {"B1": {"name": "interferon gamma: gamma interferon (Biosource) used to treat Hep-2 cells (protein, UniProt P01579 24-161, looked up)", "Interferon gamma": "QDPYVKEAENLKKYFNAGHSDVADNGTLFLGILKNWKEESDRKIMQSQIVSFYFKLFKNFKDDQSIQKSVETIKEDMNVKFFNSNKKKRDDFEKLTNYSVTDLNVQRKAIHELIQVMAELSPAAKTGKRKRSQMLFRG"}},
  "tested_on": "Hep-2 cells",
  "experiment": "Immunofluorescence localization of PML and DipA in Hep-2 cells",
  "type": "cell-based",
  "details": "5 μg of gamma interferon for 18 hrs before fixation",
  "description": "Hep-2 cells were grown in round coverslips and maintained in DMEM supplemented with 10% fetal calf serum in a humidified atmosphere containing 5% CO2. Cells were treated with 5 μg of gamma interferon (Biosource) or mocked treated for 18 hrs before fixation. Cells were fixed by one of two methods. In a first method, the cells were fixed at room temperature for 5 min with freshly prepared 1% paraformaldehyde in PBS, washed with PBS, and permeabilized for 20 min on ice with 0.2% Triton X-100 in PBS (v/v) (Sigma Chemical Co.). Antigen localization (PML and DipA) was determined after incubation of permeabilized cells with rabbit antiserum (DipA Ab) and a specific PML mab diluted in PBS for 1 hr at RT. Cells were double labeled with the respective second antibodies labeled either with FITC or Texas red, using FITC for the structures with the lowest staining intensity.\nAlternatively, cells were fixed at −20° C. for 5 min with fresh and cold acetone followed by fresh and cold absolute methanol.\nThe cells were incubated with the first Ab diluted in PBS-10% calf serum for two hrs at RT in a humidified chamber. Coverslips were washed for 10 min in PBS 0.05% Tween 20. […]\nFluorescence images were analyzed using either the Leica confocal scanning microscope or a Nikon Microphot-SA immunofluorescence microscope. […]",
  "data": [
    {"molecule": "B1", "values": [
      {"measurement": "co-localization of PML and DipA in the POD structures", "result": "increased co-localization of PML and DipA in the POD structures"}
    ]}
  ]
}
